From patent US20140349340A1, “MBTH-LIKE PROTEINS IN THE PRODUCTION OF SEMI SYNTHETIC ANTIBIOTICS” (DSM SINOCHEM PHARMACEUTICALS NETHERLANDS B.V., priority 2012, published 2014)

B1: CepB_M2_A: purified adenylation domain of CepB (PCZA363.4) module M2 (SEQ ID NO: 4); Amycolatopsis orientalis (protein, listed as Amycolatopsis orientalis)
chain: LPVGRLGVTSEPARASVVERWNSTGEAANRTSVLELFRQQADASPDAVAVMDAARTLSYADLDRESDRLAGYLAAMGVRRGDRVGVVMERGTDLFVALLAVWKAGAAQVPVNVDYPAERIERMLADAGASVAVCLEATRKAVPDGVEPVVMDVPAIDGVRHEAPQVTVGAHDLAYVMYTSGSTGVPKGVAVPHGSVAALASDPGWSQGPDDCVLLHASHAFDASLVEIWVPLVNGSRVMVAEPGAVDAERLREAISRGVTTVHLTAGAFRAVAEESPDSFTGLREILTGGDAVPLASVVRMRRACPDVRVRQLYGPTEITLCATWHVIEPGAETGDTLPIGRPLAGRQAYVLDAFLQPVAPNVTGELYIAGAGLAHGYLGNNGSTSERFIANPFASGERMYRTGDLARWTDQGELLFAGRADSQVKIRGYRVEPGEIEVALTEVPHVAQAVVVAREDHPGDKRLIAYVTAEEGPALAADAVREHLAARMPEFMVPAVVLVLDSFPLTLNGKIDRAALPAPEFTGKAAGREPRTETERVLC
B2: BpsB_M2_A: purified adenylation domain of BpsB module M2 (SEQ ID NO: 5); Amycolatopsis balhimycina (protein, listed as Amycolatopsis balhimycina)
chain: VGRLGVTSEPTRAAVVERWNSTGEAAAETSVLELFRRQAGASPDAVAVVAGERTLSYADLDRESDRLAGHLAGIGVGRGDRVGVVMTRGADLFVALLGVWKAGAAQVPVNVDYPAERIERMLADVGASVAVCVEATRKAVPDGVEPVVVDLPVIGGVRPEAPPVTVGAHDVAYVMYTSGSTGVPKAVAVPHGSVAALASDPGWSQGPGDCVLLHASHAFDASLVEIWVPLVSGARVLVAEPGTVDAERLREAVSRGVTTVHLTAGAFRAVAEESPDSFIGLREILTGGDAVPLASVVRMRQACPDVRVRQLYGPTEITLCATWLVLEPGAATGDVLPIGRPLAGRQAYVLDAFLQPVAPNVTGELYLAGAGLAHGYLGNTAATSERFVANPFSGGGRMYRTGDLARWTDQGELVFAGRADSQVKIRGYRVEPGEVEVALTEVPHVAQAVVVAREGQPGEKRLIAYVTAEAGSALESAAVRAHLATRLPEFMVPSVVVVLESFPLTLNGKIDRAALPAPEFAGKAAGREPRTEAERVLCG
B3: StaC_M2_A: purified adenylation domain of StaC module M2 (SEQ ID NO: 8); Streptomyces toyocaensis (protein, listed as Streptomyces toyocaensis)
chain: LPVGRLGVTSDATRTSEVERWNATGEAAGGASVVELFRRRSAGTPDAVAVVDGDRTLSYGDLDRESDRLAGRLAETGVRRGDHVGVVLERGADLFVAFLAVWKAGAAYVPVHVDYPPVRIERMLADAGVTVAVCAEGTRNAVPDGLEPVPVDAPWAGETRHETPTVTARDAAYVMYTSGSTGEPKGIVVPHGSVAALAGDPGWALDADDCVLMHASHAFDASLFEIWAPLVRGARVMVAEPGAVDTQRLREAVARGVTTVHLTAGSFRVLAEESPGSFDGLREILTGGDVVPLASVAQLRRACPDVRVRHLYGPTETTLCGTWHLLEPGDEPGDVLPIGRPLAGRRAYVLDAFLQPVAPNVTGELYLAGVGLALGYLGARGATSERFVADPFVPGERMYRTGDLARRNDRGELLFAGRADAQVKIRGYRVEPTEIETVLAEAPQVAQTVVVAREDGPGEKRLIAYAIAEPDQVLDPEALREHLAARLPEFMVPAAVVVLDDFPLTINGKIDREALPAPEFSAKPAGREPRTEAERVLC
B4: TycA: control protein; first one-module-bearing peptide synthetase for synthesis of tyrocidine by Bacillus brevis, phenylalanine-specific adenylation domain (protein, UniProt P09095 1-1088, looked up)
Tyrocidine synthase 1: MLANQANLIDNKRELEQHALVPYAQGKSIHQLFEEQAEAFPDRVAIVFENRRLSYQELNRKANQLARALLEKGVQTDSIVGVMMEKSIENVIAILAVLKAGGAYVPIDIEYPRDRIQYILQDSQTKIVLTQKSVSQLVHDVGYSGEVVVLDEEQLDARETANLHQPSKPTDLAYVIYTSGTTGKPKGTMLEHKGIANLQSFFQNSFGVTEQDRIGLFASMSFDASVWEMFMALLSGASLYILSKQTIHDFAAFEHYLSENELTIITLPPTYLTHLTPERITSLRIMITAGSASSAPLVNKWKDKLRYINAYGPTETSICATIWEAPSNQLSVQSVPIGKPIQNTHIYIVNEDLQLLPTGSEGELCIGGVGLARGYWNRPDLTAEKFVDNPFVPGEKMYRTGDLAKWLTDGTIEFLGRIDHQVKIRGHRIELGEIESVLLAHEHITEAVVIAREDQHAGQYLCAYYISQQEATPAQLRDYAAQKLPAYMLPSYFVKLDKMPLTPNDKIDRKALPEPDLTANQSQAAYHPPRTETESILVSIWQNVLGIEKIGIRDNFYSLGGDSIQAIQVVARLHSYQLKLETKDLLNYPTIEQVALFVKSTTRKSDQGIIAGNVPLTPIQKWFFGKNFTNTGHWNQSSVLYRPEGFDPKVIQSVMDKIIEHHDALRMVYQHENGNVVQHNRGLGGQLYDFFSYNLTAQPDVQQAIEAETQRLHSSMNLQEGPLVKVALFQTLHGDHLFLAIHHLVVDGISWRILFEDLATGYAQALAGQAISLPEKTDSFQSWSQWLQEYANEADLLSEIPYWESLESQAKNVSLPKDYEVTDCKQKSVRNMRIRLHPEETEQLLKHANQAYQTEINDLLLAALGLAFAEWSKLAQIVIHLEGHGREDIIEQANVARTVGWFTSQYPVLLDLKQTAPLSDYIKLTKENMRKIPRKGIGYDILKHVTLPENRGSLSFRVQPEVTFNYLGQFDADMRTELFTRSPYSGGNTLGADGKNNLSPESEVYTALNITGLIEGGELVLTFSYSSEQYREESIQQLSQSYQKHLLAIIAHCTEKKEVERTPSDFSVKGLQMEEMDDIFELLANTLR

Legend:
Assay type in all cases: biochemical
[1] = PPi release assay, adenylation activity with L-hydroxyphenylglycine; conditions: substrate L-hydroxyphenylglycine
Description: (§1) These assays use inorganic pyrophosphatases to convert PPi produced during aminoacyl-AMP formation to orthophosphate (Pi). To measure Pi concentrations some of these assays use molybdate/malachite green reagent for colorimetric detection (McQuade et al. 2008) or, as used in the context of the present invention, a shift in absorbance maximum by conversion of 7-methyl-6-thioguanosine (MESG) by purine nucleoside phosphorylase (Ehmann D. E. et al. (Proc. Natl. Acad. Sci. (2000) 97, 2509-2514) or Daniel & Aldrich (Anal. Biochem. (2010) 404, 56-63)).
(§2) To determine the adenylation activity of the adenylation domains, the Enzchek® pyrophosphate assay kit (Life Technologies) was used as described by Ehmann D. E. et al. (Proc Nat Acad Science (2000) 97, 2509-2514) with small modifications. The reactions were performed 96 wells UV/Vis transparent plates (BD Falcon). The reaction mixture comprises 50 mM HEPES pH 8.0, 10 mM MgCl2, 5 mM ATP, 75 mM DTT, 0.03 U Inorganic Pyrophosphatase (IP), 1 U Purine Nucleoside Phosphorylase (PNP) and 0.2 mM MESG in a volume of 70 μl. Next 20 μl (around 0.5-2 μM final concentration) of purified A(T) domain, with or without co-purification of the MbtH like helper protein was added and the reaction was pre-incubated for 15 minutes at RT to reduce contaminating Pi. Following the pre-incubation, 10 μl of a 10 mM or 1 mM solution of the appropriate amino acid depending on the performed specificity determination was added to initiate the adenylation reaction and the absorbance at 360 nm was measured using a TECAN I Control spectrophotometer. Absorbance measurements were made every 5 to 10 min over a period of up to 240 min. A reaction with addition of 10 μl MilliQ water instead was used to determine and subtract the background absorbance. As substrates the following amino acids were used: D- or L-phenylalanine, D- or L-hydroxyphenylglycine, D- or L-phenylglycine, L-tryptophan, L-valine, L-cysteine, and L-leucine.

[2] = PPi release assay, adenylation activity with D-hydroxyphenylglycine; conditions: substrate D-hydroxyphenylglycine
Description: as §1, §2

[3] = PPi release assay, adenylation activity with L-phenylalanine; conditions: substrate L-phenylalanine
Description: as §1, §2

[4] = PPi release assay, adenylation activity with D-phenylalanine; conditions: substrate D-phenylalanine
Description: as §1, §2

[5] = PPi release assay, adenylation activity with L-tryptophan; conditions: substrate L-tryptophan; protein alone; data not shown
Description: as §1
(§3) To determine the adenylation activity of the adenylation domains, the Enzchek® pyrophosphate assay kit (Life Technologies) was used as described by Ehmann D. E. et al. (Proc Nat Acad Science (2000) 97, 2509-2514) with small modifications. The reactions were performed 96 wells UV/Vis transparent plates (BD Falcon). […] Following the pre-incubation, 10 μl of a 10 mM or 1 mM solution of the appropriate amino acid depending on the performed specificity determination was added to initiate the adenylation reaction and the absorbance at 360 nm was measured using a TECAN I Control spectrophotometer. Absorbance measurements were made every 5 to 10 min over a period of up to 240 min. A reaction with addition of 10 μl MilliQ water instead was used to determine and subtract the background absorbance. […]

[6] = PPi release assay, adenylation activity with L-valine; conditions: substrate L-valine; protein alone; data not shown
Description: as §1, §3

[7] = PPi release assay, adenylation activity with L-leucine; conditions: substrate L-leucine; protein alone; data not shown
Description: as §1, §3

[8] = PPi release assay, adenylation activity with L-cysteine; conditions: substrate L-cysteine; protein alone; data not shown
Description: as §1, §3

[9] = co-purified with MbtH-like protein Tcp13
[10] = protein alone, without MbtH-like protein

| Molecule | adenylation activity (absorption 360 nm, PPi release assay) [1, 9] | adenylation activity (absorption 360 nm, PPi release assay) [1, 10] | adenylation activity (absorption 360 nm, PPi release assay) [2, 9] | adenylation activity (absorption 360 nm, PPi release assay) [2, 10] | adenylation activity (absorption 360 nm, PPi release assay) [3, 9] | adenylation activity (absorption 360 nm, PPi release assay) [3, 10] | adenylation activity (absorption 360 nm, PPi release assay) [4, 9] | adenylation activity (absorption 360 nm, PPi release assay) [4, 10] | adenylation activity (PPi release assay) [5] | adenylation activity (PPi release assay) [6] | adenylation activity (PPi release assay) [7] | adenylation activity (PPi release assay) [8] |
| --- | --- | --- | --- | --- | --- | --- | --- | --- | --- | --- | --- | --- |
| B1 | clear adenylation activity | No adenylation activity | clear adenylation activity | No adenylation activity | no activity | No adenylation activity | no activity | No adenylation activity |  |  |  |  |
| B2 | clear adenylation activity | No adenylation activity | clear adenylation activity | No adenylation activity | no activity | No adenylation activity | no activity | No adenylation activity |  |  |  |  |
| B3 | clear adenylation activity | No adenylation activity | clear adenylation activity | No adenylation activity | no activity | No adenylation activity | no activity | No adenylation activity |  |  |  |  |
| B4 |  | no adenylation activity |  | no adenylation activity |  | accepted as substrate |  | accepted as substrate | similarly recognized and adenylated | similarly recognized and adenylated | similarly recognized and adenylated | no adenylation activity |
